Reference: the Human Domainome abundance scans (Beltran et al. 2025)
± gives the uncertainty stated by the source.

B1: GA-binding protein alpha chain, residues 172 to 250; numbered along this chain, Q06546 (parent)
chain: GYRKEQERLGIPYDPIQWSTDQVLHWVVWVMKEFSMTDIDLTTLNISGRELCSLNQEDFFQRVPRGEILWSHLELLRKY

Variants of: B1
Assay: abundance fitness (aPCA) (normalised: wild type 0, dead -1); higher = more abundant; growth selection in yeast, the domain comes from the species named
Settings: Homo sapiens

Variant | abundance fitness
GYRKEQERLGIPYDPIQWSTDQVLHWVVWVMKEFSMTDIDLTTLNISGRELCSLNQEDFFQRVPRGEILWSHLELLRKA [Y79A] | -0.021 ± 0.084
GYRKEQERLGIPYDPIQWSTDQVLHWVVWVMKEFSMTDIDLTTLNISGRELCSLNQEDFFQRVPRGEILWSHLELLRKC [Y79C] | -0.061 ± 0.063
GYRKEQERLGIPYDPIQWSTDQVLHWVVWVMKEFSMTDIDLTTLNISGRELCSLNQEDFFQRVPRGEILWSHLELLRGY [K78G] | 0.033 ± 0.024
GYRKEQERLGIPYDPIQWSTDQVLHWVVWVMKEFSMTDIDLTTLNISGRELCSLNQEDFFQRVPRGEILWSHLELLRLY [K78L] | -0.135 ± 0.034
GYRKEQERLGIPYDPIQWSTDQVLHWVVWVMKEFSMTDIDLTTLNISGRELCSLNQEDFFQRVPRGEILWSHLELLRDY [K78D] | 0.023 ± 0.1
GYRKEQERLGIPYDPIQWSTDQVLHWVVWVMKEFSMTDIDLTTLNISGRELCSLNQEDFFQRVPRGEILWSHLELLRSY [K78S] | -0.045 ± 0.046
GYRKEQERLGIPYDPIQWSTDQVLHWVVWVMKEFSMTDIDLTTLNISGRELCSLNQEDFFQRVPRGEILWSHLELLRWY [K78W] | -0.23 ± 0.047
GYRKEQERLGIPYDPIQWSTDQVLHWVVWVMKEFSMTDIDLTTLNISGRELCSLNQEDFFQRVPRGEILWSHLELLRIY [K78I] | -0.009 ± 0.16
GYRKEQERLGIPYDPIQWSTDQVLHWVVWVMKEFSMTDIDLTTLNISGRELCSLNQEDFFQRVPRGEILWSHLELLRYY [K78Y] | -0.208 ± 0.085
GYRKEQERLGIPYDPIQWSTDQVLHWVVWVMKEFSMTDIDLTTLNISGRELCSLNQEDFFQRVPRGEILWSHLELLRFY [K78F] | -0.086 ± 0.082
GYRKEQERLGIPYDPIQWSTDQVLHWVVWVMKEFSMTDIDLTTLNISGRELCSLNQEDFFQRVPRGEILWSHLELLRPY [K78P] | -0.195 ± 0.066
GYRKEQERLGIPYDPIQWSTDQVLHWVVWVMKEFSMTDIDLTTLNISGRELCSLNQEDFFQRVPRGEILWSHLELLREY [K78E] | -0.05 ± 0.067
GYRKEQERLGIPYDPIQWSTDQVLHWVVWVMKEFSMTDIDLTTLNISGRELCSLNQEDFFQRVPRGEILWSHLELLRRY [K78R] | 0.003 ± 0.033
GYRKEQERLGIPYDPIQWSTDQVLHWVVWVMKEFSMTDIDLTTLNISGRELCSLNQEDFFQRVPRGEILWSHLELLRNY [K78N] | 0.096 ± 0.085
GYRKEQERLGIPYDPIQWSTDQVLHWVVWVMKEFSMTDIDLTTLNISGRELCSLNQEDFFQRVPRGEILWSHLELLRHY [K78H] | -0.015 ± 0.11
GYRKEQERLGIPYDPIQWSTDQVLHWVVWVMKEFSMTDIDLTTLNISGRELCSLNQEDFFQRVPRGEILWSHLELLRMY [K78M] | -0.071 ± 0.072
GYRKEQERLGIPYDPIQWSTDQVLHWVVWVMKEFSMTDIDLTTLNISGRELCSLNQEDFFQRVPRGEILWSHLELLRQY [K78Q] | -0.059 ± 0.087
GYRKEQERLGIPYDPIQWSTDQVLHWVVWVMKEFSMTDIDLTTLNISGRELCSLNQEDFFQRVPRGEILWSHLELLRAY [K78A] | 0 ± 0.034

Variant | abundance fitness
GYRKEQERLGIPYDPIQWSTDQVLHWVVWVMKEFSMTDIDLTTLNISGRELCSLNQEDFFQRVPRGEILWSHLELLRVY [K78V] | -0.078 ± 0.03
GYRKEQERLGIPYDPIQWSTDQVLHWVVWVMKEFSMTDIDLTTLNISGRELCSLNQEDFFQRVPRGEILWSHLELLDKY [R77D] | -0.382 ± 0.12
GYRKEQERLGIPYDPIQWSTDQVLHWVVWVMKEFSMTDIDLTTLNISGRELCSLNQEDFFQRVPRGEILWSHLELLSKY [R77S] | -0.311 ± 0.043
GYRKEQERLGIPYDPIQWSTDQVLHWVVWVMKEFSMTDIDLTTLNISGRELCSLNQEDFFQRVPRGEILWSHLELLHKY [R77H] | -0.07 ± 0.12
GYRKEQERLGIPYDPIQWSTDQVLHWVVWVMKEFSMTDIDLTTLNISGRELCSLNQEDFFQRVPRGEILWSHLELLGKY [R77G] | -0.515 ± 0.056
GYRKEQERLGIPYDPIQWSTDQVLHWVVWVMKEFSMTDIDLTTLNISGRELCSLNQEDFFQRVPRGEILWSHLELLLKY [R77L] | -0.165 ± 0.047
GYRKEQERLGIPYDPIQWSTDQVLHWVVWVMKEFSMTDIDLTTLNISGRELCSLNQEDFFQRVPRGEILWSHLELLEKY [R77E] | -0.36 ± 0.11
GYRKEQERLGIPYDPIQWSTDQVLHWVVWVMKEFSMTDIDLTTLNISGRELCSLNQEDFFQRVPRGEILWSHLELLCKY [R77C] | -0.255 ± 0.071
GYRKEQERLGIPYDPIQWSTDQVLHWVVWVMKEFSMTDIDLTTLNISGRELCSLNQEDFFQRVPRGEILWSHLELLIKY [R77I] | -0.23 ± 0.084
GYRKEQERLGIPYDPIQWSTDQVLHWVVWVMKEFSMTDIDLTTLNISGRELCSLNQEDFFQRVPRGEILWSHLELLKKY [R77K] | 0.016 ± 0.081
GYRKEQERLGIPYDPIQWSTDQVLHWVVWVMKEFSMTDIDLTTLNISGRELCSLNQEDFFQRVPRGEILWSHLELLVKY [R77V] | -0.343 ± 0.055
GYRKEQERLGIPYDPIQWSTDQVLHWVVWVMKEFSMTDIDLTTLNISGRELCSLNQEDFFQRVPRGEILWSHLELLFKY [R77F] | -0.859 ± 0.2
GYRKEQERLGIPYDPIQWSTDQVLHWVVWVMKEFSMTDIDLTTLNISGRELCSLNQEDFFQRVPRGEILWSHLELLTKY [R77T] | -0.246 ± 0.048
GYRKEQERLGIPYDPIQWSTDQVLHWVVWVMKEFSMTDIDLTTLNISGRELCSLNQEDFFQRVPRGEILWSHLELLNKY [R77N] | -0.119 ± 0.13
GYRKEQERLGIPYDPIQWSTDQVLHWVVWVMKEFSMTDIDLTTLNISGRELCSLNQEDFFQRVPRGEILWSHLELLQKY [R77Q] | -0.299 ± 0.091
GYRKEQERLGIPYDPIQWSTDQVLHWVVWVMKEFSMTDIDLTTLNISGRELCSLNQEDFFQRVPRGEILWSHLELLWKY [R77W] | -0.873 ± 0.28
GYRKEQERLGIPYDPIQWSTDQVLHWVVWVMKEFSMTDIDLTTLNISGRELCSLNQEDFFQRVPRGEILWSHLELLMKY [R77M] | -0.348 ± 0.15
